The source of these data is article PMC7048932, “Examining sterically demanding lysine analogs for histone lysine methyltransferase catalysis” (Scientific Reports, 2020).

The target in one experiment is GLP (human) (UniProt Q9H9B1).
A further experiment has as its target T1, SETD7 (human) (UniProt Q8WTS6).
T1 sequence: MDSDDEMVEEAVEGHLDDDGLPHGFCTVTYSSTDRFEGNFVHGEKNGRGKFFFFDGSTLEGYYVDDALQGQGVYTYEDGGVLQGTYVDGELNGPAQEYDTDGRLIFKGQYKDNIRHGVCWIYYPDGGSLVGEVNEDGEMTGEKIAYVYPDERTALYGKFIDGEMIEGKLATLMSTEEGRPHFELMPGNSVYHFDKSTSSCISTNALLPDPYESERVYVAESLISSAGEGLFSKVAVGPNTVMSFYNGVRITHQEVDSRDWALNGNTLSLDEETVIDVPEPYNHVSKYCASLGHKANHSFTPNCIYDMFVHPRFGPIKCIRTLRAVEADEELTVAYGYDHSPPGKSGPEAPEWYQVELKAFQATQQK

The next experiment addresses G9a (human) (UniProt Q96KQ7).

Chain of G9a (human) (Q96KQ7 whole entry): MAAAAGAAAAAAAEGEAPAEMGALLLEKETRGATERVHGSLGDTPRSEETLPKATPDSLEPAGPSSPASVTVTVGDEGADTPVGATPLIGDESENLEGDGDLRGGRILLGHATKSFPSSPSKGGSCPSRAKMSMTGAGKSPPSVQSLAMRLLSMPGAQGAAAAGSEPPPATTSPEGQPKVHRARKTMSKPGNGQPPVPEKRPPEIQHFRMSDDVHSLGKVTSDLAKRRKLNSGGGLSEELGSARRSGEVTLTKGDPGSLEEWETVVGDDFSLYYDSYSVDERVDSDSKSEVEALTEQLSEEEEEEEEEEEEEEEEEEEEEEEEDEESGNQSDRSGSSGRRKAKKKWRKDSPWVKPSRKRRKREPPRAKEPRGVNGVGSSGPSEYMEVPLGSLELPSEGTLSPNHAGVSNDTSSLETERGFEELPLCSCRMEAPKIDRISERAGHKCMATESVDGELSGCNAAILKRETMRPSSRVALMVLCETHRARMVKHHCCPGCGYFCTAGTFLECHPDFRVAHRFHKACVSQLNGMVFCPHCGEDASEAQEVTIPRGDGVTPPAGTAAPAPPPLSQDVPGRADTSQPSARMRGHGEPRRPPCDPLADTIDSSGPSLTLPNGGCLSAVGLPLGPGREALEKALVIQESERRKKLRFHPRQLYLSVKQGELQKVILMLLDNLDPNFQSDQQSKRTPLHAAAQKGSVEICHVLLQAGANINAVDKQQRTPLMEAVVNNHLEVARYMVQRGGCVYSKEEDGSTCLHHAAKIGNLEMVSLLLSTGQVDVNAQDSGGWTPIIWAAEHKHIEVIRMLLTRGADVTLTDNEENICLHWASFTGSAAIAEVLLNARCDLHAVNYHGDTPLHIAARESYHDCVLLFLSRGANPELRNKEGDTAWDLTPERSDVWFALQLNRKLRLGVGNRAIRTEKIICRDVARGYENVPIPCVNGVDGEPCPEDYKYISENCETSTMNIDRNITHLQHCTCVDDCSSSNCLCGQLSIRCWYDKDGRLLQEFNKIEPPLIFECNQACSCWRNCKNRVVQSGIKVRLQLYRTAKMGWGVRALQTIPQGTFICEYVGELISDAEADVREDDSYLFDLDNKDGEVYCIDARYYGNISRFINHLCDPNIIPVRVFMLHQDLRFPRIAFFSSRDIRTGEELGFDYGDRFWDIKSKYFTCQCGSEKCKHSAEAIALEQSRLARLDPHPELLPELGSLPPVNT
Chain of GLP (human) (Q9H9B1 whole entry): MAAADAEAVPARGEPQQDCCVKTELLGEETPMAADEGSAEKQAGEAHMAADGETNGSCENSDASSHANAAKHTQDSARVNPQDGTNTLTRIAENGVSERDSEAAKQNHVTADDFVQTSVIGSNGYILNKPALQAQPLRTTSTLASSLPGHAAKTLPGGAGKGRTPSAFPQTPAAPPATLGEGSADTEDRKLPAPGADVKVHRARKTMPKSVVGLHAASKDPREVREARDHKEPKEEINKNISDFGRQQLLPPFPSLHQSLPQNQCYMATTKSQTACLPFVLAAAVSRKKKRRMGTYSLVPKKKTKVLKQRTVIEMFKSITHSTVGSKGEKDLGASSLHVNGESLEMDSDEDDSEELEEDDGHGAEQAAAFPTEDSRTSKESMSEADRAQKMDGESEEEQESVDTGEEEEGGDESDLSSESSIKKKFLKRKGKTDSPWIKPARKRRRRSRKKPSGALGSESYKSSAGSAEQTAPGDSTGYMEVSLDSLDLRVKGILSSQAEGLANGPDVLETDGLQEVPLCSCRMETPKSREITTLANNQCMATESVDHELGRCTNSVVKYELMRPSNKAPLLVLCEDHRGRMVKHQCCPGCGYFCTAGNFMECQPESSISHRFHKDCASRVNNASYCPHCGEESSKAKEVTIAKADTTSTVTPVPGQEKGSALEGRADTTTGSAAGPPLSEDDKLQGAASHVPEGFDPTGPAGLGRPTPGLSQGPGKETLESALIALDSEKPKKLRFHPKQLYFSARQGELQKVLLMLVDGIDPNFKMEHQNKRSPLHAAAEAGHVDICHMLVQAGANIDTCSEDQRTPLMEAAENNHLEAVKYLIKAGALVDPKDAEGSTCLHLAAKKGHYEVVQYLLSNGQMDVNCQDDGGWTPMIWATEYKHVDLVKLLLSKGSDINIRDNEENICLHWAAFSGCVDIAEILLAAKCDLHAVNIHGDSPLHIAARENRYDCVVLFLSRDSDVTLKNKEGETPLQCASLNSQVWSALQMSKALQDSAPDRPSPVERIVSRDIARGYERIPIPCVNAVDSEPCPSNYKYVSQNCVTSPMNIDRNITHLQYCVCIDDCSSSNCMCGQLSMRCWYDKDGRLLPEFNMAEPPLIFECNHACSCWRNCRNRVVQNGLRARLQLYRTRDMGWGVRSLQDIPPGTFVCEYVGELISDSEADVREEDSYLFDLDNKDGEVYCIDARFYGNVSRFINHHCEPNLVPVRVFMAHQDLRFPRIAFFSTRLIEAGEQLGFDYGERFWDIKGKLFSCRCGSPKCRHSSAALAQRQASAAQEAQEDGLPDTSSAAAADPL

Consider H3F3a9 histone peptide, for which the IC50 of inhibition of GLP (100 nM) methylation of a 21-mer H3 peptide (residues 1–21, 5 µM) with SAM (20 µM), MALDI-TOF MS with GLP (human) was 26 µM. Take H3F4a4 histone peptide: in the experiment with SETD7 (human), the IC50 of inhibition of SETD7 (100 nM) methylation of a 21-mer H3 peptide (residues 1–21, 5 µM) with SAM (20 µM), MALDI-TOF MS was over 100 µM and the percent inhibition of SETD7 (100 nM) methyltransferase activity at 100 µM peptide, MALDI-TOF MS came out at 11%. Take “H3K4 analog histone peptide with pyridylalanine (AP) at position 4”: in the experiment with SETD7 (human), the IC50 of inhibition of SETD7 (100 nM) methylation of a 21-mer H3 peptide (residues 1–21, 5 µM) with SAM (20 µM), MALDI-TOF MS was over 100 µM. For H3AP9 histone peptide, the IC50 of inhibition of G9a (100 nM) methylation of a 21-mer H3 peptide (residues 1–21, 5 µM) with SAM (20 µM), MALDI-TOF MS in the experiment with G9a (human) was over 100 µM. The substance also came in with an IC50 of inhibition of GLP (100 nM) methylation of a 21-mer H3 peptide (residues 1–21, 5 µM) with SAM (20 µM), MALDI-TOF MS with GLP (human) of over 100 µM. “H3K4 analog histone peptide with benzylamine (Kba) at position 4” gave an IC50 of inhibition of SETD7 (100 nM) methylation of a 21-mer H3 peptide (residues 1–21, 5 µM) with SAM (20 µM), MALDI-TOF MS with SETD7 (human) of over 100 µM. Consider H3F4a9 histone peptide, for which the IC50 of inhibition of G9a (100 nM) methylation of a 21-mer H3 peptide (residues 1–21, 5 µM) with SAM (20 µM), MALDI-TOF MS with G9a (human) was over 100 µM. Besides, in the experiment with GLP (human), the IC50 of inhibition of GLP (100 nM) methylation of a 21-mer H3 peptide (residues 1–21, 5 µM) with SAM (20 µM), MALDI-TOF MS was over 100 µM.

H3Kba9 histone peptide: the IC50 of inhibition of G9a (100 nM) methylation of a 21-mer H3 peptide (residues 1–21, 5 µM) with SAM (20 µM), MALDI-TOF MS with G9a (human) is over 100 µM. The IC50 of inhibition of GLP (100 nM) methylation of a 21-mer H3 peptide (residues 1–21, 5 µM) with SAM (20 µM), MALDI-TOF MS with GLP (human) is over 100 µM. In turn, “H3K4 analog histone peptide with meta-aminophenylalanine (F3a) at position 4” registered an IC50 of inhibition of SETD7 (100 nM) methylation of a 21-mer H3 peptide (residues 1–21, 5 µM) with SAM (20 µM), MALDI-TOF MS in the experiment with SETD7 (human) of over 100 µM.
